Data from patent publication US20220098305A1.
Changes are numbered by the printed parent chain.

B1: P1AE0289, CEA (A5B7) Fab (parental murine antibody) (Fab, V domains shown)
VH: EVKLVESGGGLVQPGGSLRLSCATSGFTFTDYYMNWVRQPPGKALEWLGFIGNKANGYTTEYSASVKGRFTISRDKSQSILYLQMNTLRAEDSATYYCTRDRGLRFYFDYWGQGTTLTVSS
VL: QTVLSQSPAILSASPGEKVTMTCRASSSVTYIHWYQQKPGSSPKSWIYATSNLASGVPARFSGSGSGTSYSLTISRVEAEDAATYYCQHWSSKPPTFGGGTKLEIK
B2: P1AE4135, Fab derived from P1AE2164 (Fab, V domains shown)
VH: EVQLLESGGGLVQPGGSLRLSCAASGFTFTDYYMNWVRQAPGKGLEWLGFIGNKANGYTTEYSASVKGRFTISRDKSKNTLYLQMNSLRAEDTATYYCTRDRGLRFYFDYWGQGTTVTVSS
VL: QTVLTQSPATLSLSPGERATLSCRASSSVTYIHWYQQKPGSSPKSWIYATSNLASGIPARFSGSGSGTDYTLTISSLEPEDFAVYYCQHWSSKPPTFGQGTKLEIK
B3: P1AE4142, Fab derived from P1AE2181 (Fab, V domains shown)
VH: B2 VH with L48V, T95V, T99A
VL: B2 VL with Q1E, T2I, Y70F
B4: P1AE4139, Fab derived from P1AE2176 (Fab, V domains shown)
VH: B2 VH with L48V, K76N, T95V
VL: B2 VL with Q1E, T2I, Y70F
B5: P1AE4138, Fab derived from P1AE2167 (Fab, V domains shown)
VH: B2 VH
VL: B2 VL with Q1E, T2I, S41Q, S42A, K44R, Y70F
B6: P1AE4141, Fab derived from P1AE2179 (Fab, V domains shown)
VH: B2 VH with L48V, T95V, T99A
VL: B2 VL
B7: P1AE4140, Fab derived from P1AE2177 (Fab, V domains shown)
VH: B2 VH with L48V, K76N, T95V
VL: B2 VL with Q1E, T2I, S41Q, S42A, K44R, Y70F
B8: P1AE4143, Fab derived from P1AE2182 (Fab, V domains shown)
VH: B2 VH with L48V, T95V, T99A
VL: B2 VL with Q1E, T2I, S41Q, S42A, K44R, Y70F
B9: P1AE4136, Fab derived from P1AE2165 (Fab, V domains shown)
VH: B2 VH
VL: B2 VL with S41Q, S42A, K44R, S45L, W46L, Y70F
B10: P1AE4137, Fab derived from P1AE2166 (Fab, V domains shown)
VH: B2 VH
VL: B2 VL with Q1E, T2I, Y70F

Target: human CEA (hu N(A2-B2)A-avi-His B) (human)
Experiment: SPR (Biacore T200), hu N(A2-B2)A-avi-His B immobilised, Fab as analyte, 1:1 Langmuir fit

Sequence of human CEA (hu N(A2-B2)A-avi-His B) (human) (P06731 whole entry): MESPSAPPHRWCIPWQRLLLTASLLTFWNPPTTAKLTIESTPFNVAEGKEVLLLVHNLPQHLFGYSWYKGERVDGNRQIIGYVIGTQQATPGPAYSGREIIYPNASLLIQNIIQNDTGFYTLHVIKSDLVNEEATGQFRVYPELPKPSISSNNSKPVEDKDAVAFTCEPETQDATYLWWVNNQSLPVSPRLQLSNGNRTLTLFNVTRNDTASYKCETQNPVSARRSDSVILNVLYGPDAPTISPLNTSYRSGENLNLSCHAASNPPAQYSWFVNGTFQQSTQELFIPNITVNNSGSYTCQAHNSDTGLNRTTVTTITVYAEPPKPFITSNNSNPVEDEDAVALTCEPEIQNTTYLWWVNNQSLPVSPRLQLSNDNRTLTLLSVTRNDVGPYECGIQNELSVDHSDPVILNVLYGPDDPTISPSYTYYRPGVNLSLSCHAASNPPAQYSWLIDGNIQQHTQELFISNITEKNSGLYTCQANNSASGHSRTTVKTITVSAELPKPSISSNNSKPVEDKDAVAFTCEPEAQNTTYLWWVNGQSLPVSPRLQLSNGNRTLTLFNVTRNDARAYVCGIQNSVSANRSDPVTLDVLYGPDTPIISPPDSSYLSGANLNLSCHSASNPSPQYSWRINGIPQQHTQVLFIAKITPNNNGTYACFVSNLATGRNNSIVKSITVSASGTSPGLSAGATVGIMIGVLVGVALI

Kd | Binder
0.559 nM | B1
1.7 nM | B2
2.64 nM | B3
7.58 nM | B4
1.47 nM | B5
1.83 nM | B6
7.62 nM | B7
2.92 nM | B8
1.25 nM | B9
11.3 nM | B10
